Target: SARS-CoV-2 RBD single mutant E484K (SARS-CoV-2) (UniProt P0DTC2)
Experiment: peptide or protein array

Substance: Tri-TMH multimodular nanobody (Ty1, MR17-K99Y and H11-H4 modules) (VHH)
- percent decrease of the binding signal against wild-type RBD: 60%

Substance: Tri-TMV multimodular nanobody (Ty1, MR17-K99Y and VHH V modules)
- percent decrease of the binding signal against wild-type RBD: 40%

Substance: Tri-Ty1 multimodular nanobody (three Ty1 modules) (VHH)
- percent decrease of the binding signal against wild-type RBD: 96%

Source: article PMC10986514
